Test results from paper PMC10762086, “Non-canonical interplay between glutamatergic NMDA and dopamine receptors shapes synaptogenesis” (Nature Communications, 2024).

Target: GluN1 subunit-containing NMDAR (GluN1-NMDAR), tagged GluN1 expressed at the surface of hippocampal neurons (UniProt P35439 19-938, Only the defined, expressed GluN1 subunit is built: it carries the D1R interaction through its C1 cassette. The canonical 938-aa form is taken as the C1-containing GluN1-1a; the exact splice form is n)
Experiment: multidimensional spectral single molecule localization microscopy (MS-SMLM; two-colour quantum-dot single-particle tracking); live cultured hippocampal neurons (immature DIV 7-9; mature DIV 15 and above), surface receptors labelled by antibodies against extracellular tags and Qd-655 / Qd-705; 1000 frames of 50 ms (20 Hz), 37 °C; receptors counted as interacting when their distance fell below 100 nm; Koff estimated …
Conditions: partners not purified

B1: dopamine receptor 1 wild-type (D1R-wt), extracellularly tagged, expressed in hippocampal neurons (receptor, UniProt P18901 1-446, looked up)
chain: MAPNTSTMDEAGLPAERDFSFRILTACFLSLLILSTLLGNTLVCAAVIRFRHLRSKVTNFFVISLAVSDLLVAVLVMPWKAVAEIAGFWPLGPFCNIWVAFDIMCSTASILNLCVISVDRYWAISSPFQYERKMTPKAAFILISVAWTLSVLISFIPVQLSWHKAKPTWPLDGNFTSLEDTEDDNCDTRLSRTYAISSSLISFYIPVAIMIVTYTSIYRIAQKQIRRISALERAAVHAKNCQTTAGNGNPVECAQSESSFKMSFKRETKVLKTLSVIMGVFVCCWLPFFISNCMVPFCGSEETQPFCIDSITFDVFVWFGWANSSLNPIIYAFNADFQKAFSTLLGCYRLCPTTNNAIETVSINNNGAVVFSSHHEPRGSISKDCNLVYLIPHAVGSSEDLKKEEAGGIAKPLEKLSPALSVILDYDTDVSLEKIQPVTHSGQHST
notes: dopamine D1 receptor; also called dopamine D1 receptor; source: cultured rat hippocampal neurons, transfected (calcium phosphate), on live cells; not shown: extracellular tag (GFP or Flag)
koff: 13 ± 0.7 s⁻¹
